PMC4838190 (Molecular cell, 2015)

Molecular target: cSH2 domain of PLCγ (isolated, solution experiments)
Assay: NMR titration

stoichiometry N: 1 FGFR2K^pY769 per cSH2
B1: activated FGFR2 kinase, mono-phosphorylated on Tyr-769 (FGFR2K^pY769) (domain or fragment)
chain: MGSSHHHHHHSQDPMLAGVSEFELPEDPKWEFPRDKLTLGKPLGEGAFGQVVMAEAVGIDKDKPKEAVTVAVKMLKDDATEKDLSDLVSEMEMMKMIGKHKNIINLLGACTQDGPLYVIVAYASKGNLREYLRARRPPGMELSPDINRVPEEQMTFKDLVSCTYQLARGMEYLASQKCIHRDLAARNVLVTENNVMKIADFGLARDINNIDFFKETTNGRLPVKWMAPEALFDRVYTHQSDVWSFGVLMWEIFTLGGSPYPGIPVEELFKLLKEGHRMDKPANCTNELYMMMRDCWHAVPSQRPTFKQLVEDLDRILTLTTNEEYLDLSQPLEQ
modifications: phosphotyrosine at 769
